According to the supplement of paper PMC9170038:

System: MS2 coat protein
Test: apparent KD of MS2 coat protein; higher = weaker reporter binding
Settings: Eterna round: R107
Description: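 RNA-MaP round R107: designed RNA switches with theophylline, tryptophan, arginine or FMN aptamers are transcribed on-chip within common flanks. They are titrated with SNAP-549-labelled MS2 coat protein in RNA-MaP buffer (100 mM Tris pH 7.5, 80 mM KCl, 4 mM MgCl2), without ligand or with the indicated ligand. Median apparent KD per design.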

[1] = input ligand: theophylline 20 uM
[2] = input ligand: tryptophan 2.4 mM
[3] = input ligand: theophylline 2 mM

| Sequence | apparent KD of MS2 coat protein (input ligand: arginine 13.2 mM) | apparent KD of MS2 coat protein [1] | apparent KD of MS2 coat protein [2] | apparent KD of MS2 coat protein [3] | apparent KD of MS2 coat protein (input ligand: none) |
| --- | --- | --- | --- | --- | --- |
| AAAGAUACCAGAGAUACCAGCCAAAAUUAAAAUAAAACCUCACAUGAGGAUCACCCAUGUGGCCCUUGGCAGCUCCCUUGGCAGC [#DoubbleAptamer 1] | 13.1 nM | 15.5 nM | 12.5 nM | – | – |
| GGUAUGUAUUCGGAAACGAAUGCAUACCAACGAGGACCGGUACGGCCGCCACUCGGCCGUGAUCAACAUGAGGAUCACCCAUGUA [Ex Tryptophan A 6] | 16.3 nM | 21.5 nM | – | 20.2 nM | – |
| ACAUGAGGAUCACCCAUGUAAUGGCACGAUACCAGCUGAUCCCGUGGCCCUUGGCAGCGUCCGGUGUGGUCCGCCGGGUUGGACG [XXXMULLIN] | 24.4 nM | 38.7 nM | 24.1 nM | – | – |
| UAUCUACAUAUAUAGGUUAUUCGAUUAUUUCGAGGACCGGUACGGCCGCCACUCGUUAACAUAUACAUGAGGAUCACCCAUGUUA [JR_Nu_SSTryptoA_Sub023] | 15.6 nM | 19 nM | – | 17.5 nM | – |
| GGAGGUACCCGAAGGAGCGACAUGAGGAUCACCCAUGUCUCCCGUUAUGGGAGUUCUUUAGGUCAGGUAGGUCGCGGGUACCUCC [#1 Exclusion - Arginine B Attempt #2 (Inspired by Omei)] | 79.3 nM | 114 nM | 97 nM | 202 nM | 97.7 nM |
| AGAUCUUUCGAAAGAAGGAUCUUGGCUGAUACCAGAGACGAAAGUCUCCCUUGGCAGCAGUGCCAACAUGAGGAUCACCCAUGUA [Theophylline A 13] | 35 nM | 49.9 nM | 42.9 nM | – | – |
| ACAUGAGGAUCACCCAUGUUCCUCAUUGAUACCAGUGAAAGAAGACGCCCUUGGCAGCGAGAAGAAGAAGAAGAAGAAGAAGAGG [6.A] | 48.4 nM | 425 nM | 588 nM | 671 nM | 725 nM |
| UGCCGAGACGUGGAUUACCCGUGUACCGAAGGAGCGCCCGAAAGGGCAGGUAGGUCGCGGAGGACAUGAGGAUCACCCAUGUCGA | 37.3 nM | 93.5 nM | 83.7 nM | 65 nM | 52.1 nM |
| GACUGUAAAAUAUGACUCAGGGUGACGUCCCGAGGACCGGUACGGCCGCCACUCGAGCGAAUACAUGAGGAUCACCCAUGUAGUC [theeternabot_exclusion_MS2_Trp_A_15] | 20.5 nM | 61.5 nM | 54.6 nM | 81.2 nM | 45.4 nM |
| UGUAUGUGAUUUGAUACCAGUUCUGCUGGUAAAACAUGAGGAUCACCCAUGUUACUUUGGGACCCUUGGCAGCAAAUCGCAUACU [SSTheo B #27] | 90 nM | 119 nM | 202 nM | – | – |
| AACACGGUGAUGGUAGCCGGACGCUAGGUACGAGGACCGGUACGGCCGCCACUCGAAGUCCUACGACAUGAGGAUCACCCAUGUA [Same State Trp A GF14] | 46.2 nM | 89.2 nM | 47.7 nM | 81.7 nM | 64.3 nM |
| AUAAGUAAUGUUUCGUGUAUUAUUACAGAUACCAGACUAUCCUAUGUCCCUUGGCAGCUGGAUUACAUGAGGAUCACCCAUGUUG [JR_ExcTheophyA_Sub001] | 15.7 nM | 20.3 nM | 17.1 nM | – | – |
| UGUAUGGACUGAAGGAGCGGGUAAUAAAUCUGAGGAUCACCCAGGUAAUAGGCGAAAGCCACCCAGGUAGGUCGCAGUCCAUACU | 17.7 nM | 25.1 nM | 19.4 nM | 19.3 nM | 19 nM |
| CUAUAUAGAAAACUAUAUAGAGUGGGUGAACGAGGACCGGUACGGCCGCCACUCGGACAUGAGGAUCACCCAUGUCCAUGUGAAA [AstrosExyTryA#25] | 13.1 nM | 13 nM | 29.4 nM | 25 nM | 14.8 nM |
| ACAUUUAACUGAAGGAGCGUGAUUUCUACAACAUGAGGAUCACCCAUGUUCAUUACUCAUUCACAGGUAGGUCGCAGACUAAUGA [JR_SSArginiB_Sub031] | 20.9 nM | 26.8 nM | 21 nM | 23.5 nM | 20.2 nM |
| GGAUAUAGGGAACCGUAUCCGAAACCUGAAGGAGCGGCCGAAAGGCCAGGUAGGUCGCGGGAACAUGAGGAUCACCCAUGUAUUC [dancer] | 31.1 nM | 71.8 nM | 55.4 nM | 59.2 nM | 57.3 nM |
| GAGCUCGUGGACUGGCGUGCUCCGCUCCGUCGAGGACCGGUACGGCCGCCACUCGACAUGAGGAUCACCCAUGUGUGAGCUCGCG [#1 Exclusion - Tryptophan A Attempt #20 (HarryS)] | 35.3 nM | 193 nM | – | 134 nM | – |
| GGGUGCGGGCGAAGGAGCGUGAAGACAUGAGGAUCACCCAUGUAGAGGCCCGAACAGGGUUCGCAGGUAGGUCGCGCGCGUGCCC [#1 Same State - Arginine B Attempt #5 (HarryS)] | 11.8 nM | 20.4 nM | 16.3 nM | 18.6 nM | 15.6 nM |
| GCCAGACAUGAGGAUCACCCAUGUAGCGAUACCAGCUCUGUUGUGAGCCCUUGGCAGCGCACUGGCAUCGCGGGUGAUCCUGCAU [(T)''-(Ms2)-(Theo)-(T)'-(M)'-(M)''_Design3] | 15.1 nM | 137 nM | 33.1 nM | – | – |

| Sequence | apparent KD of MS2 coat protein (input ligand: arginine 13.2 mM) | apparent KD of MS2 coat protein [1] | apparent KD of MS2 coat protein [2] | apparent KD of MS2 coat protein [3] | apparent KD of MS2 coat protein (input ligand: none) |
| --- | --- | --- | --- | --- | --- |
| UGACAUUGCUCAGAUACCAGACUUGAGGAUCACCCAAGUGCCAACAAGUAUAUAAUAAAAGUCCCUUGGCAGCUGAGCAAUGUCU [TheoBX 18#MS2Left #AlternativeMS2 #Theo2] | 42.7 nM | 28.6 nM | 17.5 nM | 137 nM | 28 nM |
| AAUAGACAUGAGGAUCACCCAUGUAUGGAAGGAGCGGUGAAUAAACCAGGUAGGUCGCCAGUGUGAGGGUCAUCUAUGUAAUAAA [#18 Exclusion - Arginine A] | 37.6 nM | 63.3 nM | 46.9 nM | 62.1 nM | 49 nM |
| UUAAUUAUAUAUUAUAUAAUAUAUACAGAAGGAGCGUGAUAAAACACAGGUAGGUCGCUGAAGGGAACAUGAGGAUCACCCAUGU [AstrosSSArgA#1] | 26.9 nM | 38.5 nM | 30 nM | 48.6 nM | 25.6 nM |
| GGCGCGCGCCAACAUGAGGAUCACCCAUGUCGAGGACCGGUACGGCCGCCACUCGAACGAGUGAAGCGCGCGCGCGGAGCGCCGC [Taa] | 24 nM | 47.8 nM | 60.1 nM | 47 nM | 37.1 nM |
| CUCAUCCACGCGGCCGCCACUAUUUUUAGGUGUGGGUGUGACGUAUUACAUGAGGAUCACCCAUGUAGGACCGGGCGUGGAUGAG [Walrus] | 117 nM | 414 nM | – | 491 nM | – |
| AGAUCUUUCGAAAGAAGGAUAAUGGCUGAUACCAGAGACGAAAGUCUCCCUUGGCAGCAGUGCCAACAUGAGGAUCACCCAUGUA [Theophylline A 14] | 110 nM | 164 nM | 178 nM | – | – |
| UCUUUCUAUGUAGAUACCAGCAUGUUAUAUUUCUAAUGACAUGAGGAUCACCCAUGUAAAUGCCCUUGGCAGCUGCGUUUUCUUU [SSTHB #5] | 14.2 nM | 20.2 nM | 15.2 nM | – | – |
| AAUUCAGGGUCGGCCGCCACUGGUAUGGCGAGUCCUCGAACUUACAUGAGGAUCACCCAUGUGAACAGGACCGGGACAGCAUGGG [Exclusion Tryptophan B GF 22] | 57.8 nM | 256 nM | 214 nM | 239 nM | 233 nM |
| GCAUGUUGGUGGUAUCUGCGAAGGCGGAAUCGAGGACCGGUACGGCCGCCACUCGGCGACAUGAGGAUCACCCAUGUGGUUAGGA [Exclusion - Tryptophan A (Freestyle 8)] | 18.6 nM | 170 nM | 203 nM | 658 nM | 238 nM |
| UGACAUUGCUCAGAUACCAGACAUGAGGAUCACCCAUGUACCAAGGUAACCGAAAGGCAUGUCCCUUGGCAGCUGAGCAAUGUCU [TheoBX 2 #MS2Left #Theo2 #StaticStem] | 13 nM | 18.9 nM | 11.9 nM | – | – |
| GGCACCAGGAGAAGGAGCGUGAAGACAUGAGGAUCACCCAUGUAGAGGCCCGGACAGGGUUCGCAGGUAGGUCGCUCCUGGUGCC [#1 Same State - Arginine B Attempt #10 (HarryS)] | 20.4 nM | 245 nM | 47.2 nM | 122 nM | 8.29 nM |
| UUAGAUAUGACGGAUACCAGCGUGUUGUAGAACAUGAGGAUCACCCAUGUAGUGAUCAUGCGCCCUUGGCAGCUGGUAUGUUUGG [7.U] | 178 nM | 386 nM | 566 nM | – | – |
| UGACAUUGCUCAGAUACCAGACAUGAGGAUCACCCAUGUACCAAGGUAAGAAAAUAACAUGUCCCUUGGCAGCUGAGCAAUGUCU [First try #MS2Left #Theo2] | 16.4 nM | 38.4 nM | 14.6 nM | – | – |
| ACGUCCGGAUUAAUCGUGGGCAUGGUCGAUACCAGUAUUUUAAUCUACCCUUGGCAGCGACAUGAGGAUCACCCAUGUGCGAUGA [XTheo A #18] | 14.3 nM | 23 nM | 16.9 nM | – | – |
| GUACAUGAGGAUCACCCAUGUAUAGUUGAAGGAGCGACCAGAGGGUCAGGUAGGUCGCAGCACAUGAGGUAAGGCCGUGUAUGCU [#1 Exclusion - Arginine A Attempt #20 (Inspired by Pi)] | 17.2 nM | 23.9 nM | 16.8 nM | 21.7 nM | 15.2 nM |
| AGCAUUGUAACAGAUACCAGACUUUUAAUGCCUCUAAUUACAUGAGGAUCACCCAUGUUUGUCCCUUGGCAGCUGUUAUGAUGCA [JR_ExcTheophyB_Sub009] | 84.1 nM | 174 nM | 125 nM | – | – |
| AAGGCUACGACCGAUACCAGUAGACGGCAUUCGUAGGAGAACAUGAGGAUCACCCAUGUCUACCCUUGGCAGCGGAAAAUACACU [theeternabot_exclusion_MS2_Theo_B_16] | 11.1 nM | 17.4 nM | 12.3 nM | – | – |
| GGGACAUCGGGAAGGAGCGCAUCCAAACCACACAUGAGGAUCACCCAUGUAUAAAUAUGCAUGCAGGUAGGUCGCCCGGUGCCUC [Axeenza] | 44.2 nM | 131 nM | 101 nM | 123 nM | 114 nM |
| AAAUAGGUAGGAGAUACCAGAUAGGUUAACAUGAGGAUCACCCAUGUGUAUGCACUUAGUGUCCCUUGGCAGCUCCUGGAUCUGG [#19 Same State - Theophylline B] | 33.3 nM | 77.9 nM | 60.5 nM | 63.2 nM | 47.1 nM |
